{"source": "patent US20260337278", "about": "(published 2026)", "binders": {"B1": {"name": "SI-95X68 (antibody)", "chain 1": "not shown", "chain 2": "DILMTQSPSSMSVSLGDTVSITCHSSQDINSNIGWLQQRPGKSFKGLIYHGTNLDDEVPSRFSGSGSGADYSLTISSLESEDFADYYCVQYAQFPWTFGGGTKLEIKRTVAAPSVFIFPPSDEQLKSGTASVVCLLNNFYPREAKVQWKVDNALQSGNSQESVTEQDSKDSTYSLSSTLTLSKADYEKHKVYACEVTHQGLSSPVTKSFNRGEC"}, "B2": {"name": "SI-95X67 (antibody)", "chain 1": "not shown", "chain 2": "B1 chain 2"}, "B3": {"name": "SI-95X65 (antibody)", "chain 1": "not shown", "chain 2": "B1 chain 2"}, "B4": {"name": "SI-95X66 (antibody)", "chain 1": "not shown", "chain 2": "B1 chain 2"}, "B5": {"name": "SI-95X44 (antibody)", "chain 1": "not shown", "chain 2": "B1 chain 2"}, "B6": {"name": "SI-95X56 (antibody)", "chain 1": "not shown", "chain 2": "DIVMTQSPSSVSLSLGDRVTITCHSSQDINSNIGWLQQKPGKAFKGLIYHGTNLDDGVPSRFSGSGSGADYTLTISSLQAEDFATYYCVQYAQFPWTFGPGTKLEIKRTVAAPSVFIFPPSDEQLKSGTASVVCLLNNFYPREAKVQWKVDNALQSGNSQESVTEQDSKDSTYSLSSTLTLSKADYEKHKVYACEVTHQGLSSPVTKSFNRGEC"}, "B7": {"name": "SI-95X53 (antibody)", "chain 1": "not shown", "chain 2": "B6 chain 2"}, "B8": {"name": "SI-95X52 (antibody)", "chain 1": "not shown", "chain 2": "B6 chain 2"}, "B9": {"name": "SI-95X54 (antibody)", "chain 1": "not shown", "chain 2": "B6 chain 2"}, "B10": {"name": "SI-95X40 (antibody)", "chain 1": "not shown", "chain 2": "DIQMTQSPSSLSASVGDRVTITCRSSQNIVHSNGNTYLDWYQQTPGKAPKLLIYKVSNRFSGVPSRFSGSGSGTDFTFTISSLQPEDIATYYCFQYSHVPWTFGQGTKLQITRTVAAPSVFIFPPSDEQLKSGTASVVCLLNNFYPREAKVQWKVDNALQSGNSQESVTEQDSKDSTYSLSSTLTLSKADYEKHKVYACEVTHQGLSSPVTKSFNRGEC"}, "B11": {"name": "SI-95X49 (antibody)", "chain 1": "not shown", "chain 2": "EIVLTQSPSTLSVSPGERATFSCRASQSIGTNIHWYQQKPGKPPRLLIKYASESISGIPDRFSGSGSGTEFTLTISSVQSEDFAVYYCQQNFNWPTTFGPGTKLTVLRTVAAPSVFIFPPSDEQLKSGTASVVCLLNNFYPREAKVQWKVDNALQSGNSQESVTEQDSKDSTYSLSSTLTLSKADYEKHKVYACEVTHQGLSSPVTKSFNRGEC"}, "B12": {"name": "SI-95X47 (antibody)", "chain 1": "not shown", "chain 2": "B11 chain 2 with F92N"}, "B13": {"name": "SI-95X45 (antibody)", "chain 1": "not shown", "chain 2": "B11 chain 2 with F92N"}, "B14": {"name": "SI-95X50 (antibody)", "chain 1": "not shown", "chain 2": "B11 chain 2 with F92N"}, "B15": {"name": "SI-95X48 (antibody)", "chain 1": "not shown", "chain 2": "B11 chain 2 with F92N"}, "B16": {"name": "SI-95X58 (antibody)", "chain 1": "not shown", "chain 2": "EIVLTQSPSTLSVSPGERATFSCRASQSIGTNIHWYQQKPGKPPRLLIKYASESISGIPDRFSGSGSGTEFTLTISSVQSEDFAVYYCQQNNNWPTTFGPGTKLTVLRTVAAPSVFIFPPSDEQLKSGTASVVCLLNNFYPREAKVQWKVDNALQSGNSQESVTEQDSKDSTYSLSSTLTLSKADYEKHKVYACEVTHQGLSSPVTKSFNRGECGGGGSGGGGGSGGGGSGGGGSQVQLQESGPSLVKPSQTLSLTCTVSGYSITSDFAWNWIRQFPGRKLEWMGYISYSGNTRYNPSLKSRFTISRDTSKNQFYLKLRSVTIADTAVYYCVTAGRGFPYWGQGTLVTVSSGGGGSGGGGSGGGGSDIVMTQSPSSVSLSLGDRVTITCHSSQDINSNIGWLQQKPGKAFKGLIYHGTNLDDGVPSRFSGSGSGADYTLTISSLQAEDFATYYCVQYAQFPWTFGPGTKLEIK"}, "B17": {"name": "SI-95X57 (antibody)", "chain 1": "not shown", "chain 2": "B16 chain 2"}, "B18": {"name": "SI-95X59 (antibody)", "chain 1": "not shown", "chain 2": "B16 chain 2"}, "B19": {"name": "SI-95X62 (antibody)", "chain 1": "not shown", "chain 2": "B16 chain 2 with N92F"}, "B20": {"name": "SI-95X60 (antibody)", "chain 1": "not shown", "chain 2": "B16 chain 2"}, "B21": {"name": "SI-95X61 (antibody)", "chain 1": "not shown", "chain 2": "B16 chain 2"}}, "note": "Positions count from the first letter of the chain named.", "data": [{"molecular_target": "EGFR (wild-type, His-tagged or biotinylated) (human, UniProt P00533)", "test": "BLI", "units": {"Kd": "nM"}, "values": [{"binder": "B1", "Kd": 1.87}, {"binder": "B2", "Kd": 7.06}, {"binder": "B3", "Kd": 3.07}, {"binder": "B4", "Kd": 4.65}, {"binder": "B5", "Kd": 1.81}, {"binder": "B6", "Kd": 6.88}, {"binder": "B7", "Kd": 18.2}, {"binder": "B8", "Kd": 19.3}, {"binder": "B9", "Kd": 25.7}, {"binder": "B10", "Kd": 0.954}, {"binder": "B11", "Kd": 17.6}, {"binder": "B12", "Kd": 20.6}, {"binder": "B13", "Kd": 4.61}, {"binder": "B14", "Kd": 1.38}, {"binder": "B15", "Kd": 25.5}, {"binder": "B16", "Kd": 16}, {"binder": "B17", "Kd": 0.768}, {"binder": "B18", "Kd": 23.6}, {"binder": "B19", "Kd": 8.16}, {"binder": "B20", "Kd": 4.98}, {"binder": "B21", "Kd": 4.89}]}, {"molecular_target": "EGFRvIII (human, UniProt P00533)", "test": "BLI", "units": {"Kd": "nM"}, "values": [{"binder": "B1", "Kd": 0.865}, {"binder": "B2", "Kd": 1.24}, {"binder": "B3", "Kd": 0.804}, {"binder": "B4", "Kd": 0.576}, {"binder": "B5", "Kd": 0.466}, {"binder": "B6", "Kd": 1.93}, {"binder": "B7", "Kd": 1.28}, {"binder": "B8", "Kd": 1.47}, {"binder": "B9", "Kd": 1.37}, {"binder": "B10", "Kd": 1.16}, {"binder": "B11", "Kd": 0.291}, {"binder": "B12", "Kd": 0.272}, {"binder": "B13", "Kd": 1.11}, {"binder": "B14", "Kd": 0.207}, {"binder": "B15", "Kd": 0.404}, {"binder": "B16", "Kd": 0.807}, {"binder": "B17", "Kd": 0.549}, {"binder": "B18", "Kd": 1.03}, {"binder": "B19", "Kd": 1.02}, {"binder": "B20", "Kd": 1.95}, {"binder": "B21", "Kd": 0.573}]}]}
